The test system of data set [1] is p73α and ΔNp73α in SH-SY5Y cells. Nature of the data set: Immunoblot (Western blotting) of cisplatin-treated tumor cells. It counts as cell-based, human. The conditions noted are these: tumor cells treated with cisplatin, RT-PCR. The procedure: The present inventors ascertained that treating tumor cells with the DNA inhibiting agent cisplatin causes apoptosis of the tumor cells in a dose-dependent manner. Production of proteins p53 and p73α was confirmed by Western blotting. The tumor cells in this case are preferably neuroblastoma cells, but may also be other central or peripheral nervous system tumor cells.
The cells were lysed in EBC buffer (50 mM Tris-HCl, pH 8.0/120 mM NaCl/0.5% Nonidet P-40) containing 1 mM phenylmethylsulfonyl fluoride. The lysate was clarified by centrifugation at 14,000 rpm at 4° C. for 15 minutes. The protein concentration was determined by the Bradford procedure. For immunoblot analysis, the proteins were resolved by SDS […] gel electrophoresis and transferred to a nitrocellulose membrane. The membrane filter was blocked with 5% powdered milk in TBST (10 mM Tris-HCl, pH 8.0/150 mM NaCl/0.1% Tween 20) for 1 hour at room temperature. […] The bound secondary antibody was detected by enhanced chemiluminescence (ECL, Amersham Pharmacia Biotech) according to the manufacturer's protocol.
The whole cell protein (40 μg) was extracted from each culture. The expression levels of p73α and p53 were each determined by immunoblot analysis (described above) using p73α-specific antibody (Ab-1) or p53-specific antibody (DO-1). […]

The target in the next data set is T1, p73alpha (UniProt O15350 O15350:1-636).
T1 sequence: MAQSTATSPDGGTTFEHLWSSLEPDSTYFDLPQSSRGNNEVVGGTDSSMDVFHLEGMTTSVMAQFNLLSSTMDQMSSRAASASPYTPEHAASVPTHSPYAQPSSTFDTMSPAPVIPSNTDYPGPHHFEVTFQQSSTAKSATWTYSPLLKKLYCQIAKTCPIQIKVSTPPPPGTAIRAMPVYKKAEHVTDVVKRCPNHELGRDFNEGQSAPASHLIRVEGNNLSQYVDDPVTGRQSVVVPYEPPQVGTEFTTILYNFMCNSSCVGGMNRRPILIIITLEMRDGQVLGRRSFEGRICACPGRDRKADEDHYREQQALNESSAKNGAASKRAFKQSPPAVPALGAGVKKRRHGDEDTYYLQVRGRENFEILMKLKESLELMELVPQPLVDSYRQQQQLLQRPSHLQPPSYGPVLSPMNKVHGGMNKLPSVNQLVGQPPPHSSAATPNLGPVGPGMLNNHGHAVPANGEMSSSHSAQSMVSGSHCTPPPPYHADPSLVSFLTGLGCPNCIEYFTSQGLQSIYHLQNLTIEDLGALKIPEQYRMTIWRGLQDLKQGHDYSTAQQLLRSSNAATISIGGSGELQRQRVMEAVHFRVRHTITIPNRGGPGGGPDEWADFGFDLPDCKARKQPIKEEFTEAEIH
Nature of the data set: EMSA; supershifted by anti-HA; poly(dI-dC), 3.125 mM MgCl2, room temperature. The conditions noted are these: tags: HA tag; TNT reticulocyte lysate; label: 32P.

A further data set has as its target T2, p73beta (UniProt O15350-2 O15350-2:1-499).
T2 sequence: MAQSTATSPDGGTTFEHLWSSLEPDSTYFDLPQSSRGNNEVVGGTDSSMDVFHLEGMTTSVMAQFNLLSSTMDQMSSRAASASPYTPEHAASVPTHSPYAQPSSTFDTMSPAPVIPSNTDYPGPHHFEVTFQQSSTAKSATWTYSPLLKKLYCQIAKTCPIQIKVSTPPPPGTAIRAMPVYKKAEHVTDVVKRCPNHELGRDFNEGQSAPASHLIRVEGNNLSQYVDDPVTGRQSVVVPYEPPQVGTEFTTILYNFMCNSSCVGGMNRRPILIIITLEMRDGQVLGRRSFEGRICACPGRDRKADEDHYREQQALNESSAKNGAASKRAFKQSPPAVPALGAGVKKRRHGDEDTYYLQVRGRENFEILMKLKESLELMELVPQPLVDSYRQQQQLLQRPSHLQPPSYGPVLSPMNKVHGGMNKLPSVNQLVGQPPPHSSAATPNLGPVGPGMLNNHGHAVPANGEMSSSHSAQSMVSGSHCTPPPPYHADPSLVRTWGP
The data set is described as above. The conditions noted are these: tags: HA tag; TNT reticulocyte lysate; label: 32P.

Consider two molecules from US20060240417A1, “Agent controlling the apoptosis induction by p73” (Hisamitsu Pharmaceutical Co., Inc., priority 2002, published 2006).

For `N.N.[Cl][Pt][Cl]` [cisplatin], the “production of p73α and ΔNp73α at mRNA and protein level” value in data set [1] was “induces production of p73α and ΔNp73α”.

B1: deltaNp73 promoter 61-bp probe (dsDNA)
DNA 1: GTGCGGTCCAACACATCACCGGGCAAGCTGAGGCCTGCCCCGGACTTGGATGAATACTCAT
DNA 2: ATGAGTATTCATCCAAGTCCGGGGCAGGCCTCAGCTTGCCCGGTGATGTGTTGGACCGCAC
For the molecule B1, the binding result in the data set with p73alpha and in the data set with p73beta was “binds” in each case.
